Data from patent publication US20220098305A1 (Hoffmann-La Roche, published 2022).

T1: human ICOS (human, UniProt Q9Y6W8 21-199)
T1 sequence: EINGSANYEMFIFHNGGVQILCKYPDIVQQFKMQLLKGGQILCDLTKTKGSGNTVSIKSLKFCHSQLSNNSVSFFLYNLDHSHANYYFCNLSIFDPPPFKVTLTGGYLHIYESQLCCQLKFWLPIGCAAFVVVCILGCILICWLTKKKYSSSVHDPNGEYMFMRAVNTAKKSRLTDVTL


Legend:
human ICOS [1] = biological target: T1, human ICOS; experiment: cell-based or functional assay
human ICOS [2] = biological target: T1, human ICOS; experiment: flow cytometry on CHO cells expressing human ICOS, PE-labelled secondary antibody; y axis printed LOG10(MFI PE)
human ICOS [3] = biological target: T1, human ICOS; experiment: flow cytometry, CHO cells expressing human ICOS
human ICOS [4] = biological target: T1, human ICOS; experiment: flow cytometry on CHO cells stably expressing human ICOS, PE-labelled secondary antibody, median fluorescence intensity (MFI)
Procedure: (§1) Briefly, suspension cells were harvested, counted, checked for viability and re-suspended at 1 million cells per ml in FACS buffer (PBS with 0.1% BSA). […] The staining was fixed for 20 min at 4° C. in the dark, using 75 μl of 1% PFA in FACS buffer per well.
(§2) Fluorescence was analyzed by FACS using a FACS Fortessa (Software FACS Diva). Binding curves and EC50 values were obtained using GraphPadPrism 7.

human ICOS [5] = biological target: T1, human ICOS; experiment: flow cytometry, CHO cells expressing human ICOS; remark: listed apart in the source
Procedure: as §1, §2

human ICOS [6] = biological target: T1, human ICOS; experiment: flow cytometry on CHO cells expressing human ICOS, PE-labelled secondary antibody; y axis printed LOG10(MFI PE); remark: listed apart in the source
human ICOS [7] = biological target: T1, human ICOS; experiment: flow cytometry, SR cells
human ICOS [8] = biological target: T1, human ICOS; experiment: flow cytometry on SR cells expressing human ICOS, geometric MFI
human FAP = biological target: T2, human FAP (human, UniProt Q12884 1-760); experiment: flow cytometry, NIH/3T3-huFAP clone 19 cells
T2 construct: also called hu FAP

EC50 of activation of Jurkat-NFAT reporter cell line (human ICOS [1]) [nM] | Max (Counts/sec), Jurkat-NFAT reporter cell line (human ICOS [1]) [Counts/sec] | EC50 (read off the curve) (human ICOS [2]) [nM] | EC50 (human ICOS [3]) [nM] | Max (Log10(MFI)) (human ICOS [3]) | EC50 (read off the curve) (human ICOS [4]) [nM] | EC50 (human ICOS [5]) [nM] | EC50 (read off the curve) (human ICOS [6]) [nM] | EC50 (human ICOS [7]) [nM] | EC50 (read off the curve) (human ICOS [8]) [nM] | EC50 (human FAP) [nM] | Binder
27.6 | 63800 | ~6 | 5.2 | 2.38 Log10(MFI) | – | – | – | – | – | – | Molecule 29 (ICOS H1143v2_1) (antibody, human IgG1, kappa, L234A L235A, V domains shown, Human IgG format) VH: EVQLLESGGGLVQPGGSLRLSCAASGFDFSSAYDMSWVRQAPGKGLEWVSVIYYGDGITYYADSVKGRFTISRDNSKNTLYLQMNSLRAEDTAVYFCARGAFLGSSYYLSLWGQGTLVTVSS VL: DIQMTQSPSSLSASVGDRVTITCRASENIYNWLAWYQQKPGKAPKLLIYDASKLASGVPSRFSGSGSGTDFTLTISSLQPEDFATYYCQQAYTYGNIDNAFGGGTKVEIKR
23.2 | 52000 | ~2 | 1.75 | 4.44 Log10(MFI) | – | – | – | – | – | – | Molecule 31 (ICOS H1143v2_3) (antibody, human IgG1, kappa, L234A L235A, V domains shown, Human IgG format) VH: EVQLLESGGGLVQPGGSLRLSCAASGFDFSSAYDMSWVRQAPGKGLEWIGVIYYGDGITYYADSVKGRFTISRDNSNTLYLQMNSLRAEDTAVYFCARGAFLGSSYYLSLWGQGTLVTVSS VL: DIQMTQSPSSLSASVGDRVTITCRASENIYNWLAWYQQKPGKAPKLLIYDASKLASGVPSRFSGSGSGTDFTLTISSLQPEDFATYYCQQAYTYGNIDNAFGGGTKVEIKR
29.4 | 55300 | ~2 | 2.25 | 2.75 Log10(MFI) | – | – | – | – | – | – | Molecule 30 (ICOS H1143v2_2) (antibody, human IgG1, kappa, L234A L235A, V domains shown, Human IgG format) VH: EVQLLESGGGLVQPGGSLRLSCAASGFDFSSAYDMSWVRQAPGKGLEWVSVIYYGDGITYYADSVKGRFTISKTSSKTTLYLQMNSLRAEDTAVYFCARGAFLGSSYYLSLWGQGTLVTVSS VL: DIQMTQSPSSLSASVGDRVTITCRASENIYNWLAWYQQKPGKAPKLLIYDASKLASGVPSRFSGSGSGTDFTLTISSLQPEDFATYYCQQAYTYGNIDNAFGGGTKVEIKR
~7.99 | 47400 | – | 2.7 | 6.85 Log10(MFI) | – | – | – | – | – | – | Molecule 27 (ICOS H009v1_3) (antibody, human IgG1, kappa, L234A L235A, V domains shown, Human IgG format) VH: EVQLVESGGGLVQPGRSLRLSCTASGFTFSDYWMNWVRQAPGKGLEWVAQIRNKPYNYETYYAASVKGRFTISRDDSKSIAYLQMNSLKTEDTAVYYCTWPRLRSSDWHFDVWGKGTTVTVSS VL: DIQMTQSPSSLSASVGDRVTITCQASQDINKNIAWYQQKPGKAPKLLIWYTSTLQTGVPSRFSGSGSGTDFTFTISSLQPEDIATYYCLQFDNLYTFGQGTKLEIKR
– | – | – | – | – | ~2 | 0.0023 | – | – | – | – | Molecule 1 (JMab136 IgG) (antibody, V domains shown, IgG) VH: not shown VL: DIQMTQSPSSVSASVGDRVTITCRASQGISRLLAWYQQKPGKAPKLLIYVASSLQSGVPSRFSGSGSGTDFTLTISSLQPEDFATYYCQQANSFPWTFGQGTKVEIK
41.4 | 41400 | – | 7.58 | 3.89 Log10(MFI) | – | – | ~8 | – | – | – | Molecule 33 (ICOS H1138_1) (antibody, human IgG1, kappa, L234A L235A, V domains shown, Human IgG format) VH: EVQLLESGGGLVQPGGSLRLSCAASGFDLSSYYYMSWVRQAPGKGLEWVSSIYADIYGGTTHYASWAKGRFTISKTSSKTTLYLQMNSLRAEDTAVYFCAREDGSRYGGSGYYNLWGQGTLVTVSS VL: DIQMTQSPSSLSASVGDRVTITCRASQNIYSNLAWYQQKPGQPPKLLIYAASYLTSGVPSRFSGSGSGTDFTLTISSLQPEDFATYYCQQGHTTDNIDNAFGGGTKVEIKR
99.4 | 59500 | – | 2.72 | 4.55 Log10(MFI) | – | – | ~3 | – | – | – | Molecule 35 (ICOS H1138_3) (antibody, human IgG1, kappa, L234A L235A, V domains shown, Human IgG format) VH: EVQLLESGGGLVQPGGSLRLSCAASGFDLSSYYYMSWVRQAPGKGLEWVSSIYADIYGGTTHYASWAKGRFTISKTSSTTLYLQMNSLRAEDTAVYFCAREDGSRYGGSGYYNLWGQGTLVTVSS VL: AIQMTQSPSSLSASVGDRVTITCRASQNIYSNLAWYQQKPGKPPKLLIYAASYLTSGVSSRFSGSGSGTDFTLTISSLQPEDFATYYCQQGHTTDNIDNAFGGGTKVEIKR
34 | 38400 | – | 10.2 | 1.91 Log10(MFI) | – | – | ~10 | – | – | – | Molecule 34 (ICOS H1138_2) (antibody, human IgG1, kappa, L234A L235A, V domains shown, Human IgG format) VH: EVQLLESGGGLVQPGGSLRLSCAASGFDLSSYYYMSWVRQAPGKGLEWVSSIYADIYGGTTHYASWAKGRFTISRDNSKNTLYLQMNSLRAEDTAVYFCAREDGSRYGGSGYYNLWGQGTLVTVSS VL: AIQMTQSPSSLSASVGDRVTITCRASQNIYSNLAWYQQKPGKPPKLLIYAASYLTSGVSSRFSGSGSGTDFTLTISSLQPEDFATYYCQQGHTTDNIDNAFGGGTKVEIKR
28 | 52300 | ~3 | 2.56 | 4.88 Log10(MFI) | – | – | – | – | – | – | Molecule 28 (ICOS 1143v2) (antibody, human IgG1, kappa, L234A L235A, V domains shown, Human IgG format; also called parent antibody of Molecules 29-31) VH: QSLEESGGDLVKPGASLTLTCKASGFDFSSAYDMSWVRQAPGKGLEWIGVIYYGDGITYYATSVKGRFTISKTSSTTVPLQMTSLTAADTATYFCARGAFLGSSYYLSLWGQGTLVTVSS VL: AIDMTQTPASVEAAVGGTVTINCQASENIYNWLAWYQQKPGQPPKLLIYDASKLASGVPSRFSASGSGTQFTLTISAVESADAATYYCQQAYTYGNIDNAFGGGTEVVVSR
– | – | – | – | – | – | – | – | 0.00057 | ~0.5 | 0.00501 | Molecule 21, bispecific 2+1 anti-ICOS (1143v1)/anti-FAP (4B9) huIgG1 P329GLALA kih (bispecific antibody) heavy 1: QSLEESGGDLVKPGASLTLTCKASGFDFSSAYDMSWVRQAPGKGLEWIGVVYYGDGITYYATWAKGRFTISKTSSTTVPLQMTSLTAADTATYFCARGAFLGSSYYLSLWGQGTLVTVSSASTKGPSVFPLAPSSKSTSGGTAALGCLVKDYFPEPVTVSWNSGALTSGVHTFPAVLQSSGLYSLSSVVTVPSSSLGTQTYICNVNHKPSNTKVDKKVEPKSCDKTHTCPPCPAPEAAGGPSVFLFPPKPKDTLMISRTPEVTCVVVDVSHEDPEVKFNWYVDGVEVHNAKTKPREEQYNSTYRVVSVLTVLHQDWLNGKEYKCKVSNKALGAPIEKTISKAKGQPREPQVCTLPPSRDELTKNQVSLSCAVKGFYPSDIAVEWESNGQPENNYKTTPPVLDSDGSFFLVSKLTVDKSRWQQGNVFSCSVMHEALHNHYTQKSLSLSPGGGGGSGGGGSGGGGSGGGGSEIVLTQSPGTLSLSPGERATLSCRASQSVTSSYLAWYQQKPGQAPRLLINVGSRRATGIPDRFSGSGSGTDFTLTISRLEPEDFAVYYCQQGIMLPPTFGQGTKVEIK heavy 2: not shown light: AIDMTQTPASVEAAVGGTVTINCQASENIYNWLAWYQQKPGQPPKLLIYDASKLASGVPSRFSASGSGTQFTLTISAVESADAATYYCQQAYTYGNIDNAFGGGTEVVVSRTVAAPSVFIFPPSDEQLKSGTASVVCLLNNFYPREAKVQWKVDNALQSGNSQESVTEQDSKDSTYSLSSTLTLSKADYEKHKVYACEVTHQGLSSPVTKSFNRGEC
– | – | – | – | – | – | – | – | 0.00217 | ~2 | 0.00434 | Molecule 44, bispecific 2+1 anti-ICOS (1143)/anti-FAP (4B9) huIgG1 P329GLALA kih (bispecific antibody) heavy 1: QSLEESGGDLVKPGASLTLTCKASGFDFSSAYDMSWVRQAPGKGLEWIGSVYYGDGITYYATWAKGRFTISKTSSTTVPLQMTSLTAADTATYFCARGAFLGSSYYLSLWGQGTLVTVSSASTKGPSVFPLAPSSKSTSGGTAALGCLVKDYFPEPVTVSWNSGALTSGVHTFPAVLQSSGLYSLSSVVTVPSSSLGTQTYICNVNHKPSNTKVDKKVEPKSCDKTHTCPPCPAPEAAGGPSVFLFPPKPKDTLMISRTPEVTCVVVDVSHEDPEVKFNWYVDGVEVHNAKTKPREEQYNSTYRVVSVLTVLHQDWLNGKEYKCKVSNKALGAPIEKTISKAKGQPREPQVCTLPPSRDELTKNQVSLSCAVKGFYPSDIAVEWESNGQPENNYKTTPPVLDSDGSFFLVSKLTVDKSRWQQGNVFSCSVMHEALHNHYTQKSLSLSPGGGGGSGGGGSGGGGSGGGGSEIVLTQSPGTLSLSPGERATLSCRASQSVTSSYLAWYQQKPGQAPRLLINVGSRRATGIPDRFSGSGSGTDFTLTISRLEPEDFAVYYCQQGIMLPPTFGQGTKVEIK heavy 2: not shown light: AIDMTQTPASVEAAVGGTVTINCQASENIYNWLAWYQQKPGQPPKLLIYDASKLASGVPSRFSASGSGTQFTLTISAVESADAATYYCQQAYTYGNIDNAFGGGTEVVVSRTVAAPSVFIFPPSDEQLKSGTASVVCLLNNFYPREAKVQWKVDNALQSGNSQESVTEQDSKDSTYSLSSTLTLSKADYEKHKVYACEVTHQGLSSPVTKSFNRGEC
38.7 | 28500 | – | 2.12 | 4.3 Log10(MFI) | – | – | ~2 | – | – | – | Molecule 32 (ICOS 1138) (antibody, human IgG1, kappa, L234A L235A, V domains shown, Human IgG format; also called parental antibody of Molecules 33-35) VH: QSLEESGGDLVKPGASLTLTCTASGFDLSSYYYMSWVRQAPGKGLEWIASIYADIYGGTTHYASWAKGRFTISKTSSTTVTLQMTSLTAADTATYFCAREDGSRYGGSGYYNLWGPGTLVTVSS VL: ALVMTQTPSSVSAAVGGTVTINCQASQNIYSNLAWYQQKPGQPPKLLIYAASYLTSGVSSRFKGSGAGTQFTLTISGVESADAATYYCQQGHTTDNIDNAFGGGTEVVVKR
